Test results: publication PMC2801614, “Promoter Recognition by a Complex of Spx and the C-Terminal Domain of the RNA Polymerase α Subunit” (PLoS ONE, 2010)

Columns and labels:
[1] = target: T1, wild-type Spx protein (Bacillus subtilis, UniProt O31602 1-131); test: native gel or EMSA; supershift of the αCTD-trxB promoter (-56 to -21) complex; 5 µM Spx and 5 µM αCTD preincubated 10 min at room temperature in 20 mM Tris-HCl pH 7.8, 50 mM NaCl, 5 mM MgCl2, 10% glycerol, then 32P-labelled probe 15 min; 6% native polyacrylamide gel in TGE buffer; no DTT; conditions: both partners purified
T1 construct: Spx of Bacillus subtilis; Made with the self-cleavable intein system (New England Biolabs); also called oxidized Spx; source: E. coli ER2566 (pMMN470), purified (chitin column, High S column)
T1 sequence (looked up): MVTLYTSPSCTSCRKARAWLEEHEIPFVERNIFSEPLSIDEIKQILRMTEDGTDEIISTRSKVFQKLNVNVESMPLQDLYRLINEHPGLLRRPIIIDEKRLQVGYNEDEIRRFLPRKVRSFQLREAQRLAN

[2] = target: T2, alphaCTD (C-terminal domain of RNA polymerase alpha subunit) (Bacillus subtilis, UniProt P20429 225-314); test: EMSA; 5 uM alphaCTD; EMSA: 20 mM Tris-HCl pH 7.8, 50 mM NaCl, 5 mM MgCl2, 10% glycerol, 5 uM each protein unless stated, room temperature (10 min preincubation, 15 min with probe); conditions: protein: recombinant; tags: tag-free after self-cleavable intein/chitin purification; label: 32P-dA at 3' end of the S42 strand (Klenow fill-in); blunt after Klenow fill-in of S42 (35-mer)
T2 sequence: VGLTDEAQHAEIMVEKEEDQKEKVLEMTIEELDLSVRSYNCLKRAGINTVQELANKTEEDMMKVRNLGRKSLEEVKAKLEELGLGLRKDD

[3] = target: T3, Spx wild-type (Bacillus subtilis, UniProt O31602 1-131); test: EMSA; 5 uM Spx alone; EMSA: 20 mM Tris-HCl pH 7.8, 50 mM NaCl, 5 mM MgCl2, 10% glycerol, 5 uM each protein unless stated, room temperature (10 min preincubation, 15 min with probe); conditions: protein: recombinant; tags: tag-free after self-cleavable intein/chitin purification; label: 32P-dA at 3' end of the S42 strand (Klenow fill-in); blunt after Klenow fill-in of S42 (35-mer)
T3 sequence: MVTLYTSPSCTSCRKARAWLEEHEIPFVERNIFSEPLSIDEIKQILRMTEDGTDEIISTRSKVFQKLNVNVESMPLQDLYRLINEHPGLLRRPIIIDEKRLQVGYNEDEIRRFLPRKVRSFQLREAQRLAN

[4] = target: T4, alphaCTD (C-terminal domain of RNA polymerase alpha subunit);SpxR60E (Bacillus subtilis;Bacillus subtilis, UniProt P20429;O31602 225-314;1-131, |R60E); test: EMSA; 5 uM each; SpxR60E also prevents the alphaCTD-DNA complex; EMSA: 20 mM Tris-HCl pH 7.8, 50 mM NaCl, 5 mM MgCl2, 10% glycerol, 5 uM each protein unless stated, room temperature (10 min preincubation, 15 min with probe); conditions: protein: recombinant;recombinant; tags: tag-free after self-cleavable intein/chitin purification;intein (pTYB4), cleaved; cloned via NcoI/SmaI; copies: 1;1; label: 32P-dA at 3' end of the S42 strand (Klenow fill-in); blunt after Klenow fill-in of S42 (35-mer)
T4 sequence 1: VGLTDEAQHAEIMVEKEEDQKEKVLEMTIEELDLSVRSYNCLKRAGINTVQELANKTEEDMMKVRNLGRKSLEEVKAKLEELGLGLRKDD
T4 sequence 2: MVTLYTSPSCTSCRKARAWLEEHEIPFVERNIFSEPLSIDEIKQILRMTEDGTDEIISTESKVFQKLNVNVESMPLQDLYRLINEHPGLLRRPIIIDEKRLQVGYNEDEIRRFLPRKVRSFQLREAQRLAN

[5] = target: T2, alphaCTD (C-terminal domain of RNA …); test: EMSA; EMSA: 20 mM Tris-HCl pH 7.8, 50 mM NaCl, 5 mM MgCl2, 10% glycerol, 5 uM each protein unless stated, room temperature (10 min preincubation, 15 min with probe); conditions: protein: recombinant; tags: tag-free after self-cleavable intein/chitin purification; label: 32P-dA at 3' end of the S44 strand (Klenow fill-in); blunt after Klenow fill-in of S44 (35-mer)

B1: αCTD (residues 225–314) (domain or fragment, Bacillus subtilis, UniProt P20429 225-314, looked up)
chain: VGLTDEAQHAEIMVEKEEDQKEKVLEMTIEELDLSVRSYNCLKRAGINTVQELANKTEEDMMKVRNLGRKSLEEVKAKLEELGLGLRKDD
notes: RNA polymerase α subunit (RpoA) of Bacillus subtilis, C-terminal domain, residues 225-314; Made with the self-cleavable intein system (New England Biolabs); also called rpoA-CTD; source: E. coli BL21/pLysS (pSN37), purified (chitin column, High Q column)
[1]
  binding result: binds

B2: trxB promoter (-56 to -21) (dsDNA)
DNA 1: TAATCGTGTTGAGCAAAAAAATAGCGTATCACCATG
DNA 2: CATGGTGATACGCTATTTTTTTGCTCAACACGATTA
[2]
  binding result: binds
[3]
  binding result: no binding
[4]
  binding result: no binding

B3: trxB (-56 to -21) G-44A G-33A (dsDNA)
DNA 1: TAATCGTGTTGAACAAAAAAATAACGTATCACCATG
DNA 2: CATGGTGATACGTTATTTTTTTGTTCAACACGATTA
[5]
  binding result: binds
